Data as given in patent US20260028418A1 (GC CELL, published 2026).
Residue numbers refer to the chain shown, from its start.

T1: HER4 (R&D Systems, #1131-ER-050) (human, UniProt Q15303 26-651)
T1 construct: extracellular domain; Bought
T1 sequence (looked up): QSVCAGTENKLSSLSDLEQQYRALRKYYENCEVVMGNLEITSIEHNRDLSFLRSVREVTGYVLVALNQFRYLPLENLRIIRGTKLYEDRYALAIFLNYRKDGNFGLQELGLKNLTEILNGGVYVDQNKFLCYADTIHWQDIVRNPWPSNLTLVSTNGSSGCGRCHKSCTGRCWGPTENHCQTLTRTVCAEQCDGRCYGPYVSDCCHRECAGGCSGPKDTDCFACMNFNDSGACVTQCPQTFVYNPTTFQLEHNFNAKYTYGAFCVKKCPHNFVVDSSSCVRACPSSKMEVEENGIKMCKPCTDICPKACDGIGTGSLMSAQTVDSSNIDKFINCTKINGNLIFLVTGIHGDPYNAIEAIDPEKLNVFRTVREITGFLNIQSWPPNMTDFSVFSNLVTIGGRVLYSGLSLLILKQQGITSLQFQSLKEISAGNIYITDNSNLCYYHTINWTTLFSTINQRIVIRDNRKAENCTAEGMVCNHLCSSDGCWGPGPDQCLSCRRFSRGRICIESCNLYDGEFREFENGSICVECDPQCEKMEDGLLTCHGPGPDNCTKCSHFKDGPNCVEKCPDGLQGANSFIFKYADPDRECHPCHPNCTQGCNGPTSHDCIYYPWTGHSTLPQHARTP

B1: 24D3 (antibody, V domains shown)
VH: EVKLVESGGGLVKPGGSLKLSCAASGFTFSSCAMSWVRQTPEKRLEWVATISGGGSYTYYPDSVKGRFTISRDNAKNTLYLQMSSLRSEDTAMYYCARHGGYESWFPYWGQGTLVTVSA
VL: DIVMTQSPLSLPVSLGDQASISCRSSQSLVHSNGNTYLHWYLQKPGQSPKLLIYKVSNRFSGVPDRFSGSGSGTDFTLKISRVEAEDLGVYFCSQSTHVPPWTFGGGTKLEIK
B2: 1G3 (antibody, V domains shown)
VH: EVQLQQSGAELVKPGASVKLSCTASDFNIVDTYMHWVKQRPEQGLEWIGRIDPANGYTRYDPNFQGKATITADTSSNTAYLQLSSLTSEDTAVYYCARYYYGFYAMDYWGQGTTVTVSS
VL: DIVMTQSHKFMSTSVGDRVSITCKASQDVSTAVAWYQQKPGQSPKLLIYSASYRYTGVPDRFTGSGSGTDFTFTISSVQAEDLAVYYCQQHYSTPPTFGGGTKLELK
B3: hz2G10 (antibody, V domains shown)
VH: EVQLVESGGGLVQPGGSLRLSCAASGFTFSDYYMYWVRQAPGKGLEWVAYINSGGGSTYYPDTVKGRFTISRDNAKNSLYLQMNSLRAEDTAVYYCAREALYDYDYAMDYWGQGTTVTVSS
VL: DIVMTQSPLSLSVTPGQPASISCKSSQSLLYSNGKTYLNWLLQKPGQSPQRLIYLVSKLDSGVPDRFSGSGSGTDFTLKISRVEAEDVGVYYCVQGTHFPLTFGGGTKVEIK
notes: Humanized antibody, detected with anti-human IgG-HRP; Only the variable domains are tied to the name; also called humanized 2G10 antibody
B4: hz39D2 (antibody, V domains shown)
VH: QVQLVQSGSELKKPGASVKVSCKASGYTFTNYGVNWVRQAPGQGLEWMGWINTHTGEPTYAEEFKGRFVFSLDTSVSTAYLQISSLKAEDTAVYYCARDDYYVRVDYWGQGTTVTVSS
VL: DIQMTQSPSSLSASVGDRVTITCKASQDINSYLSWFQQKPGKAPKTLIYRANRLVDGVPSRFSGSGSGQDYTLTISSLQPEDFATYYCLQYDEFPWTFGQGTKVEIK
notes: Humanized antibody, captured as IgG by anti-human IgG in SPR; also called humanized 39D2 antibody
B5: hz39D2.14 (antibody, V domains shown)
VH: B4 VH with D100E, V105T
VL: B4 VL
B6: hz39D2.22 (antibody, V domains shown)
VH: B4 VH with D100E
VL: B4 VL with Q90E, Y91L
B7: hz39D2.23 (antibody, human IgG1, kappa, V domains shown)
VH: B4 VH with D100E
VL: DIQMTQSPSSLSASVGDRVTITCKASQDINSYLSWFQQKPGKAPKTLIYRANRLVDGVPSRFSGSGSGQDYTLTISSLQPEDFATYYCLQLDEFPWTFGQGTKVEIKR

Biological target: T2, HER2-ECD-Fc (human, UniProt P04626 23-652)
T2 construct: extracellular domain; Produced in FreeStyle 293F cells; also called HER2-ECD Fc fusion protein
Experiment: ELISA on HER2-ECD-Fc; antibody at 5 µg/mL

Point of comparison: B1, absorbance 2.92. Against it:
- B2 — lower, 2.81
- B3 — lower, 2.79
- B4 — lower, 2.9

Biological target: T2, HER2-ECD-Fc
Experiment: ELISA on HER2-ECD-Fc; antibody at 50 µg/mL

Point of comparison: B4, absorbance 2.83. Against it:
- B1 — lower, 2.75
- B2 — lower, 2.76
- B3 — lower, 2.81

Biological target: T2, HER2-ECD-Fc
Experiment: ELISA on HER2-ECD-Fc; antibody at 5 × 10^-1 µg/mL

Point of comparison: B2, absorbance 2.78. Against it:
- B1 — higher, 2.9
- B3 — lower, 2.69
- B4 — the same, 2.78

Biological target: T2, HER2-ECD-Fc
Experiment: ELISA on HER2-ECD-Fc; antibody at 5 × 10^-2 µg/mL

Point of comparison: B4, absorbance 2.92. Against it:
- B1 — lower, 2.76
- B2 — lower, 2.79
- B3 — lower, 1.16

Biological target: T2, HER2-ECD-Fc
Experiment: ELISA on HER2-ECD-Fc; antibody at 5 × 10^-3 µg/mL

Point of comparison: B2, absorbance 1.77. Against it:
- B1 — lower, 1.13
- B3 — lower, 0.22
- B4 — higher, 2.29

Biological target: T2, HER2-ECD-Fc
Experiment: ELISA on HER2-ECD-Fc; antibody at 5 × 10^-4 µg/mL

Point of comparison: B4, absorbance 0.47. Against it:
- B1 — lower, 0.22
- B2 — lower, 0.35
- B3 — lower, 0.12

Biological target: T2, HER2-ECD-Fc
Experiment: ELISA on HER2-ECD-Fc; antibody at 5 × 10^-5 µg/mL

Point of comparison: B1, absorbance 0.12. Against it:
- B2 — higher, 0.14
- B3 — the same, 0.12
- B4 — higher, 0.15

Biological target: T2, HER2-ECD-Fc
Experiment: ELISA on HER2-ECD-Fc; antibody at 5 × 10^-6 µg/mL

Point of comparison: B3, absorbance 0.12. Against it:
- B1 — lower, 0.11
- B2 — lower, 0.11
- B4 — the same, 0.12

Biological target: T2, HER2-ECD-Fc
Experiment: ELISA on HER2-ECD-Fc; antibody at 5 × 10^-7 µg/mL

Point of comparison: B3, absorbance 0.12. Against it:
- B1 — lower, 0.11
- B2 — lower, 0.11
- B4 — the same, 0.12

Biological target: T3, HER2-ECD-His (human, UniProt P04626 23-652)
T3 construct: extracellular domain; also called HER2-His; HER2-ECD-His protein; not shown: His tag
Experiment: SPR (Biacore, CM5), IgG captured by anti-human IgG, HER2-ECD-His as analyte
Description: 2000 RU of goat anti-human IgG (Invitrogen, #H10500) was immobilized onto a CM5 sensor chip by […]. Then, the antibodies were allowed to bind at a rate of 50 μL/min for 5 minutes and then stabilized for 5 minutes by flowing a buffer. After stabilizing the antibodies, the HER2-ECD-His protein was allowed to bind at a rate of 50 μL/min for 4 minutes and then separated by flowing a buffer for 15 minutes. After analyzing the concentration, the resultant was recycled using 10 mM glycine (pH 1.5) and then subjected to the subsequent assay. The affinity of the antibodies was analyzed using the BIAevaluation software.

Point of comparison: B7, Kd 2.8 nM. Against it:
- B4 — 13-fold higher, 37 nM
- B5 — 2.9-fold higher, 8 nM
- B6 — within 1.5-fold, 2 nM

Point of comparison: B5, koff 0.0003 s⁻¹. Against it:
- B4 — 8.3-fold higher, 0.0025 s⁻¹
- B6 — 1.9-fold lower, 0.00016 s⁻¹
- B7 — within 1.5-fold, 0.0002 s⁻¹

Point of comparison: B6, kon 81000 M⁻¹ s⁻¹. Against it:
- B4 — within 1.5-fold, 68000 M⁻¹ s⁻¹
- B5 — 2.2-fold lower, 37000 M⁻¹ s⁻¹
- B7 — within 1.5-fold, 71000 M⁻¹ s⁻¹

Biological target: T4, EGFR-ECD-Fc (human, UniProt P00533 25-645)
T4 construct: extracellular domain; also called extracellular domain of EGFR; not shown: Hinge and Fc region (CH2-CH3) of human IgG1; The protein was produced in the same manner as HER2-ECD-Fc
Experiment: ELISA on ErbB family extracellular domains, Absorbance at 450 nm; antibody concentration not given
Text: (§1) It was investigated whether the developed five antibodies of the present disclosure specifically bind to HER2 belonging to the ErbB family proteins by ELISA.

B1: no binding.
B2: no binding.
B3: no binding.
B4: no binding.

Biological target: T5, HER3 (R&D Systems, #348-RB-050) (human, UniProt P21860 20-643)
T5 construct: extracellular domain; Bought
Experiment: as above
Text: as §1

B1: no binding.
B2: no binding.
B3: no binding.
B4: no binding.

Biological target: T1, HER4 (R&D Systems, #1131-ER-050)
Experiment: as above
Text: as §1

B1: no binding.
B2: no binding.
B3: no binding.
B4: no binding.

Biological target: T6, HER2-ECD DI Fc (human, UniProt P04626 23-217, limits assumed)
T6 construct: domain: domain 1; also called domain 1 of the extracellular domains of the HER2 protein; not shown: Hinge and Fc region (CH2-CH3) of human IgG1, at the C-terminus
Experiment: ELISA on plate-coated HER2 domain-Fc fusion (1 µg/mL), anti-human IgG-HRP, Abs 450 nm; antibody concentration not given
Description: (§2) The HER2-ECD DI Fc, HER2-ECD DII Fc, HER2-ECD DIII Fc, HER2-ECD DIV Fc and HER2-ECD Fc fusion proteins were immobilized at 4° C. overnight onto a Costar 96-well plate (Corning, Cat. No. 3590) at a concentration of 1 μg/mL […]. The resultant was washed 3 times with TBS-T (0.05% Triton X-100) and then blocked at room temperature for 1 hour with 100 μL of TBS-T/BSA (5% BSA). After washing the blocked plate 3 times and adding the anti-HER2 antibody, the antibody was allowed to bind at room temperature for 1 hour. After washing 3 times and then adding anti-human IgG-HRP diluted to 1:3,000 in TBS-T/BSA, as a secondary antibody, the antibody was allowed to bind at room temperature for 1 hour. After washing the resultant 3 times and adding TMB (SurModics, Cat. No. TMBC-1000-01), the mixture was allowed to develop color at room temperature for 5 minutes. Then, the color development was stopped by adding 1 N sulfuric acid (DukSan, Cat. No. 254). Absorbance was measured at 450 nm using Victor X3 (PerkinElmer, Cat. No. 2030-0030).

B1: no binding.
B2: no binding.

Biological target: T7, HER2-ECD DIII Fc (human, UniProt P04626 342-510, limits assumed)
T7 construct: domain: domain 3; also called domain 3 of the extracellular domains of the HER2 protein; not shown: Hinge and Fc region (CH2-CH3) of human IgG1, at the C-terminus
Experiment: as above
Description: as §2

B2: no binding.
B3: no binding.
B4: no binding.
